Measured values: patent US20160175384A1
Square brackets hold non-standard residues; d marks the D form. * marks the point of attachment. Butanoyl(4-Ph) = O=C(CCCc1ccccc1)*; Butanoyl(4-ethynyl) = C#CCCCC(=O)*

Columns and labels:
[1] = target: human melanocortin 1 receptor (human) (UniProt Q01726); assay: time-resolved lanthanide fluorescence competitive binding vs Eu-labeled NDP-alpha-MSH; 10% ligand loading
[2] = target: human melanocortin 1 receptor (human) (UniProt Q01726); assay: time-resolved lanthanide fluorescence competitive binding; reference 1-targeted UXL micelles
[3] = target: human melanocortin 1 receptor (human) (UniProt Q01726); assay: competitive binding vs Eu-NDP-alpha-MSH, time-resolved fluorescence, HCT116/hMC1R cells; concentration normalized to the targeting group

human melanocortin 1 receptor (human), sequence (Q01726 whole entry): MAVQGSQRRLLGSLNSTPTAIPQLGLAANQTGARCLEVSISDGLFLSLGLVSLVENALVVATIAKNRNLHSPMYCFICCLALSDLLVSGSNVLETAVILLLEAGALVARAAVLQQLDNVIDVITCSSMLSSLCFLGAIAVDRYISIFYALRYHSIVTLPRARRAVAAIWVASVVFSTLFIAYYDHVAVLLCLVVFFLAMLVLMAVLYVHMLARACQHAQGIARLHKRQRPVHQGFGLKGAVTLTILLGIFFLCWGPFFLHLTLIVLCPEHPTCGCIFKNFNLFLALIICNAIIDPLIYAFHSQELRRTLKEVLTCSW

Ki [1]	fold lower Ki than the corresponding UXL micelles [2]	Ki [3]	Binder
2.9 nM	4 times		{Butanoyl(4-Ph)}-H[dF]RWGK(Butanoyl(4-ethynyl))-NH2 (peptide, part only; not given: crosslinked triblock polymer, part only, also: Fe(III)-crosslinked micelle)
12 nM			{Butanoyl(4-Ph)}-H[dF]RWGK(Butanoyl(4-ethynyl))-NH2 (peptide, part only; not given: uncrosslinked triblock polymer, part only, also: uncrosslinked micelle)
		11.5 nM	{Butanoyl(4-Ph)}-H[dF]RWGK(Butanoyl(4-ethynyl))-NH2 (peptide, part only; not given: triblock polymer, part only, not fully specified; printed as 4-phenylbutyryl-His-DPhe-Arg-Trp-Gly-Lys(hex-5-ynoyl)-NH2; also: Lys hex-5-ynoyl clicked via 1,2,3-triazole to PEG azide of triblock polymer micelle) [4-targeted triblock polymer micelles]
